# Starred links: 1 amine or outer side, 2 acyl side, 3 side chain; linkers in the order of their positions; H or OH if unused. Non-standard residues stand in square brackets, D forms with d. Groups on a side chain read outwards from the residue. *: point of attachment. γGlu = O=C(O)[C@H](CCC(=O)[*:2])N[*:1]; Palmitoyl = CCCCCCCCCCCCCCCC(=O)*; Aib = CC(C)(N)C(=O)O
# B1: Compound 4 (peptide)
# peptide: H-H[Aib]PGTFTSDYSKYLDSK([γGlu-Palmitoyl])AAHDFVEWLLSA-NH2
# SMILES: CCCCCCCCCCCCCCCC(=O)N[C@@H](CCC(=O)NCCCC[C@H](NC(=O)[C@H](CO)NC(=O)[C@H](CC(=O)O)NC(=O)[C@H](CC(C)C)NC(=O)[C@H](Cc1ccc(O)cc1)NC(=O)[C@H](CCCCN)NC(=O)[C@H](CO)NC(=O)[C@H](Cc1ccc(O)cc1)NC(=O)[C@H](CC(=O)O)NC(=O)[C@H](CO)NC(=O)[C@@H](NC(=O)[C@H](Cc1ccccc1)NC(=O)[C@@H](NC(=O)CNC(=O)[C@@H]1CCCN1C(=O)C(C)(C)NC(=O)[C@@H](N)Cc1c[nH]cn1)[C@@H](C)O)[C@@H](C)O)C(=O)N[C@@H](C)C(=O)N[C@@H](C)C(=O)N[C@@H](Cc1c[nH]cn1)C(=O)N[C@@H](CC(=O)O)C(=O)N[C@@H](Cc1ccccc1)C(=O)N[C@H](C(=O)N[C@@H](CCC(=O)O)C(=O)N[C@@H](Cc1c[nH]c2ccccc12)C(=O)N[C@@H](CC(C)C)C(=O)N[C@@H](CC(C)C)C(=O)N[C@@H](CO)C(=O)N[C@@H](C)C(N)=O)C(C)C)C(=O)O
# B2: Compound 12 (peptide)
# peptide: H-H[Aib]QFTFTSDYSKYLDSK([γGlu-Palmitoyl])AAHDFVEWLLSA-NH2
# SMILES: CCCCCCCCCCCCCCCC(=O)N[C@@H](CCC(=O)NCCCC[C@H](NC(=O)[C@H](CO)NC(=O)[C@H](CC(=O)O)NC(=O)[C@H](CC(C)C)NC(=O)[C@H](Cc1ccc(O)cc1)NC(=O)[C@H](CCCCN)NC(=O)[C@H](CO)NC(=O)[C@H](Cc1ccc(O)cc1)NC(=O)[C@H](CC(=O)O)NC(=O)[C@H](CO)NC(=O)[C@@H](NC(=O)[C@H](Cc1ccccc1)NC(=O)[C@@H](NC(=O)[C@H](Cc1ccccc1)NC(=O)[C@H](CCC(N)=O)NC(=O)C(C)(C)NC(=O)[C@@H](N)Cc1c[nH]cn1)[C@@H](C)O)[C@@H](C)O)C(=O)N[C@@H](C)C(=O)N[C@@H](C)C(=O)N[C@@H](Cc1c[nH]cn1)C(=O)N[C@@H](CC(=O)O)C(=O)N[C@@H](Cc1ccccc1)C(=O)N[C@H](C(=O)N[C@@H](CCC(=O)O)C(=O)N[C@@H](Cc1c[nH]c2ccccc12)C(=O)N[C@@H](CC(C)C)C(=O)N[C@@H](CC(C)C)C(=O)N[C@@H](CO)C(=O)N[C@@H](C)C(N)=O)C(C)C)C(=O)O
# B3: Compound 7 (peptide)
# peptide: H-H[Aib]EGTFTSDYSKYLDSK([γGlu-Palmitoyl])AAHDFVEWLLSA-NH2
# SMILES: CCCCCCCCCCCCCCCC(=O)N[C@@H](CCC(=O)NCCCC[C@H](NC(=O)[C@H](CO)NC(=O)[C@H](CC(=O)O)NC(=O)[C@H](CC(C)C)NC(=O)[C@H](Cc1ccc(O)cc1)NC(=O)[C@H](CCCCN)NC(=O)[C@H](CO)NC(=O)[C@H](Cc1ccc(O)cc1)NC(=O)[C@H](CC(=O)O)NC(=O)[C@H](CO)NC(=O)[C@@H](NC(=O)[C@H](Cc1ccccc1)NC(=O)[C@@H](NC(=O)CNC(=O)[C@H](CCC(=O)O)NC(=O)C(C)(C)NC(=O)[C@@H](N)Cc1c[nH]cn1)[C@@H](C)O)[C@@H](C)O)C(=O)N[C@@H](C)C(=O)N[C@@H](C)C(=O)N[C@@H](Cc1c[nH]cn1)C(=O)N[C@@H](CC(=O)O)C(=O)N[C@@H](Cc1ccccc1)C(=O)N[C@H](C(=O)N[C@@H](CCC(=O)O)C(=O)N[C@@H](Cc1c[nH]c2ccccc12)C(=O)N[C@@H](CC(C)C)C(=O)N[C@@H](CC(C)C)C(=O)N[C@@H](CO)C(=O)N[C@@H](C)C(N)=O)C(C)C)C(=O)O
# B4: Compound 8 (peptide)
# peptide: H-H[Aib]QATFTSDYSKYLDSK([γGlu-Palmitoyl])AAHDFVEWLLSA-NH2
# SMILES: CCCCCCCCCCCCCCCC(=O)N[C@@H](CCC(=O)NCCCC[C@H](NC(=O)[C@H](CO)NC(=O)[C@H](CC(=O)O)NC(=O)[C@H](CC(C)C)NC(=O)[C@H](Cc1ccc(O)cc1)NC(=O)[C@H](CCCCN)NC(=O)[C@H](CO)NC(=O)[C@H](Cc1ccc(O)cc1)NC(=O)[C@H](CC(=O)O)NC(=O)[C@H](CO)NC(=O)[C@@H](NC(=O)[C@H](Cc1ccccc1)NC(=O)[C@@H](NC(=O)[C@H](C)NC(=O)[C@H](CCC(N)=O)NC(=O)C(C)(C)NC(=O)[C@@H](N)Cc1c[nH]cn1)[C@@H](C)O)[C@@H](C)O)C(=O)N[C@@H](C)C(=O)N[C@@H](C)C(=O)N[C@@H](Cc1c[nH]cn1)C(=O)N[C@@H](CC(=O)O)C(=O)N[C@@H](Cc1ccccc1)C(=O)N[C@H](C(=O)N[C@@H](CCC(=O)O)C(=O)N[C@@H](Cc1c[nH]c2ccccc12)C(=O)N[C@@H](CC(C)C)C(=O)N[C@@H](CC(C)C)C(=O)N[C@@H](CO)C(=O)N[C@@H](C)C(N)=O)C(C)C)C(=O)O
# B5: Compound 11 (peptide)
# peptide: H-H[Aib]Q[Aib]TFTSDYSKYLDSK([γGlu-Palmitoyl])AAHDFVEWLLSA-NH2
# SMILES: CCCCCCCCCCCCCCCC(=O)N[C@@H](CCC(=O)NCCCC[C@H](NC(=O)[C@H](CO)NC(=O)[C@H](CC(=O)O)NC(=O)[C@H](CC(C)C)NC(=O)[C@H](Cc1ccc(O)cc1)NC(=O)[C@H](CCCCN)NC(=O)[C@H](CO)NC(=O)[C@H](Cc1ccc(O)cc1)NC(=O)[C@H](CC(=O)O)NC(=O)[C@H](CO)NC(=O)[C@@H](NC(=O)[C@H](Cc1ccccc1)NC(=O)[C@@H](NC(=O)C(C)(C)NC(=O)[C@H](CCC(N)=O)NC(=O)C(C)(C)NC(=O)[C@@H](N)Cc1c[nH]cn1)[C@@H](C)O)[C@@H](C)O)C(=O)N[C@@H](C)C(=O)N[C@@H](C)C(=O)N[C@@H](Cc1c[nH]cn1)C(=O)N[C@@H](CC(=O)O)C(=O)N[C@@H](Cc1ccccc1)C(=O)N[C@H](C(=O)N[C@@H](CCC(=O)O)C(=O)N[C@@H](Cc1c[nH]c2ccccc12)C(=O)N[C@@H](CC(C)C)C(=O)N[C@@H](CC(C)C)C(=O)N[C@@H](CO)C(=O)N[C@@H](C)C(N)=O)C(C)C)C(=O)O
# B6: Compound 10 (peptide)
# peptide: H-H[Aib]QETFTSDYSKYLDSK([γGlu-Palmitoyl])AAHDFVEWLLSA-NH2
# SMILES: CCCCCCCCCCCCCCCC(=O)N[C@@H](CCC(=O)NCCCC[C@H](NC(=O)[C@H](CO)NC(=O)[C@H](CC(=O)O)NC(=O)[C@H](CC(C)C)NC(=O)[C@H](Cc1ccc(O)cc1)NC(=O)[C@H](CCCCN)NC(=O)[C@H](CO)NC(=O)[C@H](Cc1ccc(O)cc1)NC(=O)[C@H](CC(=O)O)NC(=O)[C@H](CO)NC(=O)[C@@H](NC(=O)[C@H](Cc1ccccc1)NC(=O)[C@@H](NC(=O)[C@H](CCC(=O)O)NC(=O)[C@H](CCC(N)=O)NC(=O)C(C)(C)NC(=O)[C@@H](N)Cc1c[nH]cn1)[C@@H](C)O)[C@@H](C)O)C(=O)N[C@@H](C)C(=O)N[C@@H](C)C(=O)N[C@@H](Cc1c[nH]cn1)C(=O)N[C@@H](CC(=O)O)C(=O)N[C@@H](Cc1ccccc1)C(=O)N[C@H](C(=O)N[C@@H](CCC(=O)O)C(=O)N[C@@H](Cc1c[nH]c2ccccc12)C(=O)N[C@@H](CC(C)C)C(=O)N[C@@H](CC(C)C)C(=O)N[C@@H](CO)C(=O)N[C@@H](C)C(N)=O)C(C)C)C(=O)O
# B7: Compound 5 (peptide)
# peptide: H-H[Aib]HGTFTSDYSKYLDSK([γGlu-Palmitoyl])AAHEFVEWLLEA-NH2
# SMILES: CCCCCCCCCCCCCCCC(=O)N[C@@H](CCC(=O)NCCCC[C@H](NC(=O)[C@H](CO)NC(=O)[C@H](CC(=O)O)NC(=O)[C@H](CC(C)C)NC(=O)[C@H](Cc1ccc(O)cc1)NC(=O)[C@H](CCCCN)NC(=O)[C@H](CO)NC(=O)[C@H](Cc1ccc(O)cc1)NC(=O)[C@H](CC(=O)O)NC(=O)[C@H](CO)NC(=O)[C@@H](NC(=O)[C@H](Cc1ccccc1)NC(=O)[C@@H](NC(=O)CNC(=O)[C@H](Cc1c[nH]cn1)NC(=O)C(C)(C)NC(=O)[C@@H](N)Cc1c[nH]cn1)[C@@H](C)O)[C@@H](C)O)C(=O)N[C@@H](C)C(=O)N[C@@H](C)C(=O)N[C@@H](Cc1c[nH]cn1)C(=O)N[C@@H](CCC(=O)O)C(=O)N[C@@H](Cc1ccccc1)C(=O)N[C@H](C(=O)N[C@@H](CCC(=O)O)C(=O)N[C@@H](Cc1c[nH]c2ccccc12)C(=O)N[C@@H](CC(C)C)C(=O)N[C@@H](CC(C)C)C(=O)N[C@@H](CCC(=O)O)C(=O)N[C@@H](C)C(N)=O)C(C)C)C(=O)O
# B8: Compound 9 (peptide)
# peptide: H-HSQ[Aib]TFTSDYSKYLDSK([γGlu-Palmitoyl])AAHDFVEWLLSA-NH2
# SMILES: CCCCCCCCCCCCCCCC(=O)N[C@@H](CCC(=O)NCCCC[C@H](NC(=O)[C@H](CO)NC(=O)[C@H](CC(=O)O)NC(=O)[C@H](CC(C)C)NC(=O)[C@H](Cc1ccc(O)cc1)NC(=O)[C@H](CCCCN)NC(=O)[C@H](CO)NC(=O)[C@H](Cc1ccc(O)cc1)NC(=O)[C@H](CC(=O)O)NC(=O)[C@H](CO)NC(=O)[C@@H](NC(=O)[C@H](Cc1ccccc1)NC(=O)[C@@H](NC(=O)C(C)(C)NC(=O)[C@H](CCC(N)=O)NC(=O)[C@H](CO)NC(=O)[C@@H](N)Cc1c[nH]cn1)[C@@H](C)O)[C@@H](C)O)C(=O)N[C@@H](C)C(=O)N[C@@H](C)C(=O)N[C@@H](Cc1c[nH]cn1)C(=O)N[C@@H](CC(=O)O)C(=O)N[C@@H](Cc1ccccc1)C(=O)N[C@H](C(=O)N[C@@H](CCC(=O)O)C(=O)N[C@@H](Cc1c[nH]c2ccccc12)C(=O)N[C@@H](CC(C)C)C(=O)N[C@@H](CC(C)C)C(=O)N[C@@H](CO)C(=O)N[C@@H](C)C(N)=O)C(C)C)C(=O)O
# B9: human GLP-1 (ligand)
# peptide: RSLQDTEEKSRSFSASQADPLSDPDQMNEDKRHSQGTFTSDYSKYLDSRRAQDFVQWLMNTKRNRNNIAKRHDEFERHAEGTFTSDVSSYLEGQAAKEFIAWLVKGRGRRDFPEEVAIVEELGRRHADGSFSDEMNTILDNLAARDFINWLIQTKITDRK
# Target: human glucagon receptor (glucagon-R) (human, UniProt P47871)
# Assay: cell-based or functional assay
Binder,"EC50 (nM) GluR, cAMP formation [nM]","EC50 (nM) GluR, cAMP formation, earlier determination [nM]"
B1,0.48,
B2,25,
B3,26,
B4,3,23
B5,5.1,
B6,15,
B7,0.15,
B8,30,
B9,100000,

# Target: human glucagon-like peptide 1 receptor (GLP-1R) (human, UniProt P43220)
# Assay: cell-based or functional assay
row,Binder,"EC50 (nM) GLP-1R, cAMP formation [nM]"
1,B1,0.1
2,B2,12
3,B3,0.01
4,B4,8.2
5,B5,22
6,B6,20
7,B7,0.16
8,B8,16

# — US20130157929A1, “GLUCAGON ANALOGUES” (ZEALAND PHARMA A/S, published 2013)
